# Source: the supplement of paper PMC11246515
# ± gives the standard deviation of the averaged measurements.
# Experiment: total protein half-life in vivo (active degradation + dilution); higher = more stable protein
# [1] = E. coli NCM3722 delta-clpP delta-lon delta-hslV, growth: N-lim chemostat, doubling time 6 h
# [2] = E. coli NCM3722 delta-clpP, growth: N-lim chemostat, doubling time 6 h
# [3] = E. coli NCM3722 delta-hslV, growth: N-lim chemostat, doubling time 6 h
# [4] = E. coli NCM3722 delta-lon, growth: N-lim chemostat, doubling time 6 h
# [5] = E. coli NCM3722 delta-smpB, growth: N-lim chemostat, doubling time 6 h
# [6] = wild type E. coli NCM3722, growth: C-lim chemostat, doubling time 3 h
# [7] = wild type E. coli NCM3722, growth: C-lim chemostat, doubling time 6 h
# [8] = wild type E. coli NCM3722, growth: C-lim chemostat, doubling time 12 h
# [9] = wild type E. coli NCM3722, growth: N-lim chemostat, doubling time 6 h
# [10] = wild type E. coli NCM3722, growth: N-lim chemostat, doubling time 12 h
# [11] = wild type E. coli NCM3722, growth: P-lim chemostat, doubling time 6 h
# [12] = wild type E. coli NCM3722, growth: P-lim chemostat, doubling time 12 h
sequence,measurement,setting,value
MKFSELWLREWVNPAIDSDALANQITMAGLEVDGVEPVAGSFHGVVVGEVVECAQHPNADKLRVTKVNVGGDRLLDIVCGAPNCRQGLRVAVATIGAVLPGDFKIKAAKLRGEPSEGMLCSFSELGISDDHSGIIELPADAPIGTDIREYLKLDDNTIEISVTPNRADCLGIIGVARDVAVLNQLPLVQPEIVPVGATIDDTLPITVEAPEACPRYLGRVVKGINVKAPTPLWMKEKLRRCGIRSIDAVVDVTNYVLLELGQPMHAFDKDRIEGGIVVRMAKEGETLVLLDGTEAKLNADTLVIADHNKALAMGGIFGGEHSGVNDETQNVLLECAFFSPLSITGRARRHGLHTDASHRYERGVDPALQHKAMERATRLLIDICGGEAGPVIDITNEATLPKRATITLRRSKLDRLIGHHIADEQVTDILRRLGCEVTEGKDEWQAVAPSWRFDMEIEEDLVEEVARVYGYNNIPDEPVQASLIMGTHREADLSLKRVKTLLNDKGYQEVITYSFVDPKVQQMIHPGVEALLLPSPISVEMSAMRLSLWTGLLATVVYNQNRQQNRVRIFESGLRFVPDTQAPLGIRQDLMLAGVICGNRYEEHWNLAKETVDFYDLKGDLESVLDLTGKLNEVEFRAEANPALHPGQSAAIYLKGERIGFVGVVHPELERKLDLNGRTLVFELEWNKLADRVVPQAREISRFPANRRDIAVVVAENVPAADILSECKKVGVNQVVGVNLFDVYRGKGVAEGYKSLAISLILQDTSRTLEEEEIAATVAKCVEALKERFQASLRD,total protein half-life in vivo,[1],6.244 ± 0.025 h
same,total protein half-life in vivo,[2],5.88 ± 0.61 h
same,total protein half-life in vivo,[3],5.77 ± 0.16 h
same,total protein half-life in vivo,[4],5.98 ± 0.44 h
same,total protein half-life in vivo,[5],5.33 ± 0.063 h
same,total protein half-life in vivo,[6],3.37 ± 0.066 h
same,total protein half-life in vivo,[7],6.34 ± 0.37 h
same,total protein half-life in vivo,[8],12.5 ± 0.56 h
same,total protein half-life in vivo,[9],5.41 ± 0.088 h
same,total protein half-life in vivo,[10],10.4 ± 0.24 h
same,total protein half-life in vivo,[11],6.01 ± 0.4 h
same,total protein half-life in vivo,[12],12 ± 0.58 h
MAFKFKTFAAVGALIGSLALVGCGQDEKDPNHIKVGVIVGAEQQVAEVAQKVAKDKYGLDVELVTFNDYVLPNEALSKGDIDANAFQHKPYLDQQLKDRGYKLVAVGNTFVYPIAGYSKKIKSLDELQDGSQVAVPNDPTNLGRSLLLLQKVGLIKLKDGVGLLPTVLDVVENPKNLKIVELEAPQLPRSLDDAQIALAVINTTYASQIGLTPAKDGIFVEDKESPYVNLIVTREDNKDAENVKKFVQAYQSDEVYEAANKVFNGGAVKGW,total protein half-life in vivo,[1],5.86 ± 0.32 h
same,total protein half-life in vivo,[2],6.85 ± 0.96 h
same,total protein half-life in vivo,[3],6.15 ± 0.22 h
same,total protein half-life in vivo,[4],6.95 ± 0.8 h
same,total protein half-life in vivo,[5],5.84 ± 0.36 h
same,total protein half-life in vivo,[6],3.04 ± 0.097 h
same,total protein half-life in vivo,[7],6.52 ± 0.23 h
same,total protein half-life in vivo,[8],11.6 ± 0.54 h
same,total protein half-life in vivo,[9],5.85 ± 0.088 h
same,total protein half-life in vivo,[10],12.69 ± 0.014 h
same,total protein half-life in vivo,[11],5.99 ± 0.093 h
same,total protein half-life in vivo,[12],13 ± 0.76 h
MELIEKHVSFGGWQNMYRHYSQSLKCEMNVGVYLPPKAANEKLPVLYWLSGLTCNEQNFITKSGMQRYAAEHNIIVVAPDTSPRGSHVADADRYDLGQGAGFYLNATQAPWNEHYKMYDYIRNELPDLVMHHFPATAKKSISGHSMGGLGALVLALRNPDEYVSVSAFSPIVSPSQVPWGQQAFAAYLAENKDAWLDYDPVSLISQGQRVAEIMVDQGLSDDFYAEQLRTPNLEKICQEMNIKTLIRYHEGYDHSYYFVSSFIGEHIAYHANKLNMR,total protein half-life in vivo,[1],7.46 h
same,total protein half-life in vivo,[4],4.61 h
same,total protein half-life in vivo,[5],2.58 h
same,total protein half-life in vivo,[6],2.74 ± 0.72 h
same,total protein half-life in vivo,[7],7.26 ± 1 h
same,total protein half-life in vivo,[8],6.87 h
same,total protein half-life in vivo,[12],10.9 h
MNSKKLCCICVLFSLLAGCASESSIDEKKKKAQVTQSNINKNTPQQLTDKDLFGNETTLAVSEEDIQAALDGDEFRVPLNSPVILVQSGNRAPETIMQEEMRKYYTVSTFSGIPDRQKPLTCNKNKDKNENEDVASAENMNWMQALRFVAAKGHQKAIIVYQDMLQTGKYDSALKSTVWSDYKNDKLTDAISLRYLVRFTLVDVATGEWATWSPVNYEYKVLPPLPDKNEASTTDMTEQQIMQLKQKTYKAMVKDLVNRYQ,total protein half-life in vivo,[5],2.44 h
MYAAKGTQAYAQIGVESAVMSASQQQLVTMLFDGVLSALVRASLFMQDNNQQGKGVSLSKAINIIENGLRVSLDEESKDELTQNLIALYSYMVRRLLQANLRNDVSAVEEVEALMRNIADAWKESLLSPSLIQDPV,total protein half-life in vivo,[6],0.207 ± 0.029 h
MTMFQYYKRSRHFVFSAFIAFVFVLLCQNTAFARASSNGDLPTKADLQAQLDSLNKQKDLSAQDKLVQQDLTDTLATLDKIDRIKEETVQLRQKVAEAPEKMRQATAALTALSDVDNDEETRKILSTLSLRQLETRVAQALDDLQNAQNDLASYNSQLVSLQTQPERVQNAMYNASQQLQQIRSRLDGTDVGETALRPSQKVLMQAQQALLNAEIDQQRKSLEGNTVLQDTLQKQRDYVTANSARLEHQLQLLQEAVNSKRLTLTEKTAQEAVSPDEAARIQANPLVKQELEINQQLSQRLITATENGNQLMQQNIKVKNWLERALQSERNIKEQIAVLKGSLLLSRILYQQQQTLPSADELENMTNRIADLRLEQFEVNQQRDALFQSDAFVNKLEEGHTNEVNSEVHDALLQVVDMRRELLDQLNKQLGNQLMMAINLQINQQQLMSVSKNLKSILTQQIFWVNSNRPMDWDWIKAFPQSLKDEFKSMKITVNWQKAWPAVFIAFLAGLPLLLIAGLIHWRLGWLKAYQQKLASAVGSLRNDSQLNTPKAILIDLIRALPVCLIILAVGLILLTMQLNISELLWSFSKKLAIFWLVFGLCWKVLEKNGVAVRHFGMPEQQTSHWRRQIVRISLALLPIHFWSVVAELSPLHLMDDVLGQAMIFFNLLLIAFLVWPMCRESWRDKESHTMRLVTITVLSIIPIALMVLTATGYFYTTLRLAGRWIETVYLVIIWNLLYQTVLRGLSVAARRIAWRRALARRQNLVKEGAEGAEPPEEPTIALEQVNQQTLRITMLLMFALFGVMFWAIWSDLITVFSYLDSITLWHYNGTEAGAAVVKNVTMGSLLFAIIASMVAWALIRNLPGLLEVLVLSRLNMRQGASYAITTILNYIIIAVGAMTVFGSLGVSWDKLQWLAAALSVGLGFGLQEIFGNFVSGLIILFERPVRIGDTVTIGSFSGTVSKIRIRATTITDFDRKEVIIPNKAFVTERLINWSLTDTTTRLVIRLGVAYGSDLEKVRKVLLKAATEHPRVMHEPMPEVFFTAFGASTLDHELRLYVRELRDRSRTVDELNRTIDQLCRENDINIAFNQLEVHLHNEKGDEVTEVKRDYKGDDPTPAVG,total protein half-life in vivo,[1],5.8 ± 0.075 h
same,total protein half-life in vivo,[2],6.4 ± 0.7 h
same,total protein half-life in vivo,[3],5.72 ± 0.36 h
same,total protein half-life in vivo,[4],6.99 ± 1.1 h
same,total protein half-life in vivo,[5],5.79 ± 0.11 h
same,total protein half-life in vivo,[6],3.06 ± 0.094 h
same,total protein half-life in vivo,[7],5.56 ± 0.15 h
same,total protein half-life in vivo,[8],11.1 ± 2.1 h
same,total protein half-life in vivo,[9],6.73 ± 0.33 h
same,total protein half-life in vivo,[10],13.1 ± 1.6 h
same,total protein half-life in vivo,[11],5.94 ± 0.43 h
same,total protein half-life in vivo,[12],11.4 ± 0.85 h
MPQQIELRNIALQAAQPLVHGVSLTLQRGRVLALVGGSGSGKSLTCAATLGILPAGVRQTAGEILADGKPVSPCALRGIKIATIMQNPRSAFNPLHTMHTHARETCLALGKPADDATLTAAIEAVGLENAARVLKLYPFEMSGGMLQRMMIAMAVLCESPFIIADEPTTDLDVVAQARILDLLESIMQKQAPGMLLVTHDMGVVARLADDVAVMSDGKIVEQGDVETLFNAPKHTVTRSLVSAHLALYGMELAS,total protein half-life in vivo,[1],4.47 h
MQRKTLLSACIALALSGQGWAADITEVETTTGEKKNTNVTCPADPGKLSPEELKRLPSECSPLVEQNLMPWLSTGAAALITALAVVELNDDDDHHHRNNSPLPPTPPDDESDDTPVPPTPGGDEIIPDDPDDTPTPPKPVSFNNDVILDKTEKTLTIRDSVFTYTENADGTISLQDSNGRKATINLWQIDEANNTVALEGVSADGATKWQYNHNGELVITGDNATVNNNGKTTVDGKDSTGTEINGNNGKVIQDGDLDVSGGGHGIDITGDSATVDNKGTMTVTDPESMGIQIDGDKAIVNNEGESTITNGGTGTQINGDDATANNNGKTTVDGKDSTGTEINGNNGKVIQDGDLDVSGGGHGIDITGDSATVDNKGTMTVTDPESIGIQVDGDQAVVNNEGESAITNGGTGTQINGDDATANNNGKTTVDGKDSTGTEIAGNNGKVIQDGDLDVSGGGHGIDITGDSATVDNKGTMTVTDPESIGIQIDGDQAIVNNEGESTITNGGTGTQINGNDATANNSGKTTVDGKDSTGTKIAGNIGIVNLDGSLTVTGGAHGVENIGDNGTVNNKGDIVVSDTGSIGVLINGEGATVSNTGDVNVSNEATGFSITTNSGKVSLAGSMQVGDFSTGVDLNGNNNSVTLAAKDLKVVGQKATGINVSGDANTVNITGNVLVDKDKTADNAAEYFFDPSVGINVYGSDNNVTLDGKLTVVSDSEVTSRQSNLFDGSAEKTSGLVVIGDGNTVNMNGGLELIGEKNALADGSQVTSLRTGYSYTSVIVVSGESSVYLNGDTTISGEFPLGFAGVIRVQDKALLEIGSGATLTMQDIDSFEHHGTRTLDLPLYFQTSVIT,total protein half-life in vivo,[12],11 ± 1.1 h
